These results are taken from the NTF2 design screens of Basanta et al. (2020).

The data set can be described thus: protease stability score; higher = more stable; yeast display proteolysis, trypsin and chymotrypsin.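 Note: relative to predicted unfolded state with 0 unfolded-like and 1 meaning tenfold more protease.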
In turn, “SEEEHLSKLTKKHMLHLWETGNETILEELADPNARHRWLVNGKEVTAHGREEVTRLFRDILDELGVDHLKLHSETVIGEKIHFDMIMIIGEFESRVRLNLHIVNGRIKEIDLQEQ” came in with a protease stability score of 0.445.
The value for “SEEEHMIELIVKWYSRALETGDEEELAEMLDPNTRLDVDGKDIHGRENILKRRKKHLDHLGHERIEIHFDVSHIDYIGDKVIIHVKLILHYNGREIHLDVKMLIVKINGRWRFRHFESK” was 1.93; that for “SEEEHMLEAFFEDVLQLVMTGDEHRLKHLFDPNVRVETEHEHFHGRELFLQRMLEIRIHDFHIHDFEVQGDKAHVDGRVEGTIDGRTNHWTFTLILEKIDGRWLANKVTWH” was 1.55; that for “SEEEHRMREILDLLTESFHTGDERIHLEYADPHARFDIGDKHIHGRELFTKRWKEWLERFKNITLQLRIDDVSIIDGVFVVEGTLTIRINGVEIERDTHIFLYIVDGRVSTMKRTIH” was -0.116.
Next, “SEEEHRSELAVELVHYTLMTGDFHLIERLVDPNVKLRILIGDKEYDLHGWKEVYRFMVTFGFDHMELKTFDLQGDKLNIDLRLHVDGRNVETSIVALKVNGKWINESEHYRIK”: 0.464.
With “SEEEHRVKELARLFVEVLLTGDWKTLLELMDPNTRLRINGKDFIGMEDAVKAWRDYLDEIRHDDIKLTRIENNEDHSHLDGRQHGIYNGQRTDTILNVDIHMVNGKIKEVHIEIE”, the protease stability score came to 1.01.
The value for “SEEEHRVKELSELMLHWFKTGDEETMDHLMDPDARFELQVGDKEVHSHGWESVHKVLRRTLFWLGADHYNDKDFKHQGDKSKIDMTVHVGDKTVEVTLHLKIVDGRLKFLEIRVK” was 1.16; that for “SEEEHTSEEALRAFVFLELTGDEKSLIELLDPRTRIHAENHEVVGRERATEEWRRWLEFYKNIRVHDVEIEEIHLIDGRIKLIMRRDGVINGVKRETHIRMITNKVNGRWLVHSIIIR” was 1.37; that for “SEEEHVAEELIKQFLRKFSTGDEDSMRNLFDPNVKIEQGEFDIHGREEETRYFRELRVHIEDSTAREIRVQGDKVDIDLEVVGIVHFNGKTVRRIIRTRVHLLKVDGQWHIKSIQIL” was 1.24.
Next, “SEEEHVAKKLSDLILHAWRTGDEDQLSRLMDPHVRMIIGDKHLHGREEVSRWLHDWRRQVDHVEFHVKRFHVQGNKYTNDGHFVVHQGDKETRTDVEIILIVVDGKIHEIRIIIR”: 2.17; “SEEEHVLEFIVKLFLEAWLTGDEDIIDWLVDPHTRLHVNGVDLHGREEVSHFLAHIRVEQLHIDDERITNINGVLHVDIKTEERFDVNGRVTRTKSELHIFIRKVDGRWFIQVFKIVYH”: 0.332.
Consider “SEEEHVMVEIVRKLTEAKHTGDFKTEHELMDPHARIDINGVEIHGMEEWRHLYEEWRFIVHRTHVRHVHVQGDKVDLKGEFRGVIDYDGREIEYNTKVNLHLHKVDGRWQLHDVKTT”, for which the protease stability score was determined as 0.552.
Take “SEEEHVTDLALELWIRTHNTGNWHLLKRLLDPNTRVQVGNKIYHGMELISKEIFRKLLEMGFETHIEVEDSEYFEGHVRFRITIRLVVGDKEIILDTELLMIKFNGRWFITEIRIE”: the protease stability score was 0.686.
In turn, “SEEEHWLDDAFRWLIELIFTGDETEIEKMIDPNVKIHIGEKNNHGREIMIEWLERLGVKHVREMRIRHVHRQGNKLIVHGEIHREVDGVKIETESLIVAKKVDGQWHLQSVRVN” returned a protease stability score of 2.37.
The value for “SEEEHWVELLIELLERTQKTGDEHSFERLMDPNVRIIIGDKVMHGREEASRWMHEARVHETRIEHIRIINGRAHIDSRERGEINGREINLRVEIISSKVDGRWVITEVRVE” was 0.943; that for “SEEEHWVREFEEAVRHDAETGDENSISEFLDPNVRVDINGKELHGRELMDEMIRHFLERYDHIRIHIHDNRLIDGRVEMDIRLYFIQGEKHMEIDSERFIFKVDGKWRLEEVRIK” was 0.3.
The value for “SEEEHYMLKVAKLAVRNYFTGNEHVLDELFDPHTRQEVNGVENHGRETVRDFLREHLKHMRFHDFKIRDFKWQGDKAHTETETDVEIDGQRIPLRMEIIIIIIDGVPKSISLRLG” was 1.05; that for “SEEEHYRREMIHFSREVWETGDWDSLMNLADPNVRIEAENHDLHGREFFVKLMEEISRKFKNVRIIIRHLHIQGDKVEMHSEIIFNGRSVHVTFFALKVNGRWIFKEMVFI” was 0.925.
Next, “SEEEIMTKLAEKILKMHWDTGDERIRKELADPHVRIDQGDFNLHGWEVLHLTLNLLGVTKFRLHILEIHDVSMQGDKIEMDIEVHMHVNGRKISFRVQVHSIKIDGKWKQHSLIIH”: 0.153; “SEEEKAFKESYDVWIEALKTGNEEESREMFDPTPLQVVNGQELHGRDHIEQEVSEWRIDHVDIDELRLQGDKAILHGRVSGHINGKRVKFEEKLVMHKIDGRWFIRSVIVR”: 0.333.
Consider “SEEEKAIIDLFKLWIHAFVTGDEEKLSELMDPRVRLTVGDKHLHGMEIVVEWYRRLRDKIKNLQFRSFEIEDFRIVNGRVELEAVIHIHFNGQMRTIEVRFILEKVDGRWFLKSVEEK”, for which the protease stability score amounted to 2.57.
Next, “SEEEKDARDFIDYLVHHLETGDEEEFEKLIDPHTRLQVDGRHFHGREAYEWMLYQFKNVKIKHLTIRHIEIQGDKVHITSTWNLIVDGQEKELRTHIILDKVNGRWMIRKMRIQ”: 1.8; “SEEEKDATDMLEHYIRSLLTGDEHLWRELADPNVKTEIDGVEMIGRESWRILVERLGVDHSDVEDIDFRFYDGRLNVRVKTRHHVNGRTFETELIVIIEKINGRWRVTQIEIRIK”: 2.5.
Next, “SEEEKDIKNAFRLLVKIIRTGDWEDHHKQMDPDVLIIVGDKEHHGWEEASRFMKEHLERVDHEDLKLRRVHIQGEKMELDGELFVNVDGRLIRMRVIFFLNKVNGRWVIHSLEIR”: 2.28.
Next, “SEEEKDNKLAIHLTMEILRTGDEEHSKKMIDPDARHQQGDKELHGMEEVSTEIMEIWRRYKGVKFEVKRVHMQGEFIKIKVDLHVNGQTLDVIIVLYKVDGRWTIHSIHVH”: 1.48.
“SEEEKEAEDILRMVIHVLRTGDWHTLKNMLDPHAKNDVNGREQVGMRDWIETFTRIHRELGISNIDFKLHDIRITEHHVLVDGILIFNGKEYRLNLIITKINGRWVNEHIHLH” gave a protease stability score of 1.08.
“SEEEKEAEEAMKRSLRSLETGDEELLDEMADPDVRLHVGEFQLIGRESFRKHQRRLTKRFKNMRFHIHRMEVYGEKLSIFGRFHWDGVDTETEIIEVKINGRWFLREVHIR” had a protease stability score of 0.639.
For the sequence “SEEEKEAEEFLRKHLHDRLTGDEDWVLRNIDPNARFDINGREIIGMEEWRQWLHEARVRVDDTQIDEKRSVGNKLDVRSTMHVTIEFDGVRVKHILDVELIMTKVDGKWKVKEVRVR”, the protease stability score stood at 1.61.
Sequence “SEEEKEAERMLRLWIETVKTGNEEVWRELFDPNARMLIGDKESVGREQIEELVRSVYDRLGAKVIHDFYIDRIHVIGDKVEIDSRVDSIINGRRYHLETHIIFVKINGKWVLKSVELR” gave a protease stability score of 2.06.
The value for “SEEEKEAHDWMEVWLELFHTGDEDMLEHMADPHTRIHVDGRKFHGRENYVRLVRHMRVHHFIERRVRIINGRIHIEGEARVNINGQEIDNHVQIHLNLVDGRLKTEHIKVK” was 0.927; that for “SEEEKEAKDALEKLWHYWHTGDEHELVRLADPTMRHIINGRHFHGREFFSELLRRLGFKHIIYHFEDMDVQGDKVHIHGHIESEFDGRRHHMNTHLIILKVNGKWIYESIKFD” was 1.32; that for “SEEEKEAQHLLELENDARRTGDEDFSREMVDPNVKIDINGRDLHGWDVAEELMRQADHVHHEHIRQVEVQGDKLIVDMEINGHINGKSFDIKIHLFIWKYNGKWFVRKIDVK” was 1.44.
The value for “SEEEKEARESIHRFEAALKTGNEESLFELLDPHVRIDVNGQELHGWKEWKHIVHENKKRVKGARFRIHHIEIINGRIHLDGEVSINGKDIRTEYIIEKIDGVWRLTEVIIR” was 1.28; that for “SEEEKEARRILTHFREVLHTGDEHALLELMDPNVRFILHDENHTVENHGMENMVTSLRKFGFDVIKRVHDKEHHLQGDKIKFHVETLGEINGREFEVEVQIRLYVVDGVLKWSEIIIH” was 1.1.
